Measured values: the DeepSol protein solubility set

Assay: soluble on expression in E. coli; label from the status in PepcDB or PDB records

| Sequence | soluble on expression in E. coli |
| --- | --- |
| MSTILSLAPQNVWKHFYSLTQIPRPSGHMEKVTEFLINFGKGLGLESFVDEAGNVIIRKPATPGMENRKGVILQAHMDMVPQKNNDTVHDFEKDPIETYIDGDWVKAKGTTLGADNGLGVAAIMAVLEANDLKHGPLEALITKDEETGMYGAFGLKPGTVNGEILLNLDSEDEGELYIGCAGGMDVTATLEYKEVAPEEGDVAVKVSLKGLRGGHSGLEINEGRANANKLLVRFVREAVASYEARLVSWDGGNMRNAIPREACAVLAIPAENEEELLGLVKYCEDLFNEEFSAIETPISFTAERVELPAGEVPEEIQDNLIDAIFACQNGVTRMIPTVPDTVETSSNLAIITIGGGKAEIKILARSSSDSMKEYLTTSLESCFSMAGMKVEMTGGYSGWQPNVESPILHAMKESYKQQFGVEPAVKVIHAGLECGIIGAIIPGLDMISFGPTLRSPHSPDERALIPTVQKFYDFLVATLAQTPTKLEHHHHHH | soluble |
| MGSDKIHHHHHHMQKYTSQKLDRLNWDDLRYFLEVARTQRASAAGKRLGVDHTTVARRVRELEAALGVILFDKSRADGFTLTSDGHRLLRHADAVETAVQSASEQFRGATQGLSGHVRIGSTEGFGCFFLSPQIARFTAAHRDVSIDILPVPHFVSLSKREADMAITLERPERGKYVFTRLCDYRLRLYGTRDYFLRHEPVRCIADLRHHAFIDYVADLAFSHELLYLNRTIPDVSSSLCSTSVIAQYFAALQGNALAILPCFMAAPNPMLVSILPDEVVVTRQFWLSSREDLRKLRRITVLWDYLRAATDANRPLLLGDSAELKYVQP | not soluble |
| SITDILSAEDIAAALQECQDPDTFEPQKFFQTSGLSKMSASQVKDIFRFIDNDQSGYLDGDELKYFLQKFQSDARELTESETKSLMDAADNDGDGKIGADEFQEMVHS | soluble |
| MSLTPATQPLINAEPAVAAQTEQNPQVGQVMPGVQGADAPVVAQNGPSRDVKLTFAQIAPPPGSMVLRGINPNGSIEFGMRSDEVVTKAMLNLEYTPSPSLLPVQSQLKVYLNDELMGVLPVTKEQLGKKTLAQMPINPLFITDFNRVRLEFVGHYQDVCENPASTTLWLDVGRSSGLDLTYQTLNVKNDLSHFPVPFFDPRDNRTNTLPMVFAGAPDVGLQQASAIVASWFGSRSGWRGQNFPVLYNQLPDRNAIVFATNDKRPDFLRDHPAVKAPVIEMINHPQNPYVKLLVVFGRDDKDLLQAAKGIAQGNILFRGESVVVNEVKPLLPRKPYDAPNWVRTDRPVTFGELKTYEEQLQSSGLEPAAINVSLNLPPDLYLMRSTGIDMDINYRYTMPPVKDSSRMDISLNNQFLQSFNLSSKQEANRLLLRIPVLQGLLDGKTDVSIPALKLGATNQLRFDFEYMNPMPGGSVDNCITFQPVQNHVVIGDDSTIDFSKYYHFIPMPDLRAFANAGFPFSRMADLSQTITVMPKTPNEAQMETLLNTVGFIGAQTGFPAINLTVTDDGSTIQGKDADIMIIGGIPDKLKDDKQIDLLVQATESWVKTPMRQTPFPGIVPDESDRAAETQSTLTSSGAMAAVIGFQSPYNDQRSVIALLADSPRGYEMLNDAVNDSGKRATMFGSVAVIRESGINSLRVGDVYYVGHLPWFERLWYALANHPILEGHHHHHH | soluble |
| MAHHHHHHSLMLVVRPISMADYEALHTCAVESGHGFTSLPVDQELLTNRITHSEYSFSKPNVTMPGDEGYLMVGVDTETGQVAGTTGIEASIGWDVPFYSYHISTIVHSSPKLGVNNVVKLLTFGNNYTGCSEICTLFLRPQYRQGLNGRLMSKCRFLMMAEHSHRFSKTIFAEMRGVSDADGNSPFWKWLQEHFFSIDFTLADYLTGIGKKGFIADLMPKLPIYVNLLSKEAQAVIGQVHENTRPALVLLEKEGFTCRNYVDIFDAGPTVECELNNIESVRHSVRAIVEVAEHSSSQNFIMCNTSFENFRATAAKAAYSQEDNAVIISPKVAAALEVSTGDYLRILAQEG | not soluble |
| MYMTGHSLGCYLAQIAAVEAYQKYPDFYNHVLRKVTTFSAPKVITSRTVWNAKNGFWDVGLESRKLAVSGKIKHYVVDNDNVVTPLIHNNRDIVTFTGNSRFKHRSRGYFESPMNDIPNFNIGKQATLDKHGYRDPKLDKVRFFKKQALPRSSSQPSAEPMENIASGKQVTQSSTAFGGDARRAVDGKVDGNYGHNSVTHTNFQSKPWWQVDLAKEETIRQINIYNRTDTAQDRLANFDVILLDSSGKEIE | not soluble |
| MGSDKIHHHHHHMSLTDGPYAGPPQPDVVDPSGGANQTRVRAYNERLVMSLVRRHGSLSKAEIARRSGLSAQTASVIMRSLEADGLLVRGAPVRGRVGQPSIPMRLNPDAVYSFGVKIGRRSADLVLMDFLGTIRLHLHQIHTYPLPEEIVSFIVGGIGKLEGQLGPGERGRIAGVGIATPFELWNWSEEVGAPREEMDRWRDFDLQAAVASRIRHPVFLQNDGTSACGAELAFGVGASYPDFVYFYIGSFIGGGVVINSALFSGRTGTAGAVGPLPVAGKDGKSTQLLKIASVFVLEKLLRERGIDPEPLWYSADDWIDFGEPLEIWIQDAAAALAQAVVSAVSVVDFSAAVIDGGFPPWVRARLLAATRKALQTLDLQGVTVPDLVEGTVGSHARAIGGASLPLFSRYLLDTNVLFKEL | not soluble |
| MSLAKISKIEAQKRKGRYNIYLDGKYAFPVAESVLIQFRLMKGTELDEKQIAAIATADQQAKAYSRMLDYLSYQMRTESDIVKKLKEIDTPEEFVEPILKKLRGQQLIDDHAYAASYVRTMINTDLKGPGIIRQHLRQKGIGESDIDDALTQFTPEVQAELAKKLALKLFRRYRNQPERRREQKVQQGLTTKGFSSSVYEMIKDEVVPQPDLEQENDLLAKEAAKQWRRVRRYQGYEREQHFKQTMYRKGFDLDDVQSWLDAQDEGHHHHHH | soluble |
| MEIEVTPVDILLQLVKMGKVDPWNIDIVDLTEKYIKMLREMQELDLRISARAILAAAILVRMKSEALLNEDSREQEEKEEERIRVEVDPLVPPLRRVERYYTLDDLIDALMEALEEAERRKPKKKKKVEIDEEIFVIDDFRVDIEKYVEELYKVVKKIYEKTGTPIKFWDLVPDVEPKIIARTFLYLLFLENMGRVEIIQEEPFGEILVVPM | soluble |
| MGHHHHHHSHMVPSREALLGPGTTAIRCPKKLQNQNYKGHGLSKGKEREQRASIRFKTTLMNTLMDVLRHRPGWVEVKDEGEWDFYWCDVSWLRENFDHTYMDEHVRISHFRNHYELTRKNYMVKNLKRFRKQLEREAGKLEAAKCDFFPKTFEMPCEYHLFVEEFRKNPGITWIMKPVARSQGKGIFLFRRLKDIVDWRKDTRSSDDQKDDIPVENYVAQRYIENPYLIGGRKFDLRVYVLVMSVFAECLLWSGHRRQDVHLTNVAVQKTSPDYHPKKGCKWTLQRFRQYLASKHGPEAVETLFRDIDNIFVKSLQSVQKVIISDKHCFELYGYDILIDQDLKPWLLEVNASPSLTASSQEDYELKTCLLEDTLHVVDMEARLTGREKRVGGFDLMWNDGPVSREEGAPDLSGMGNFVTNTHLGCVNDRKKQLRQLFCS | soluble |
| GATDSATAAPAAAATTQVQKEAADVLQVAVQGANAMRDIQFARLALFHGQPDSAKKLTDDAAALLAADDASWAKFVKTDAKAKMIADRYVIINASIALSEDYVATPEKESAIQSANEKLAKGDQKGAIDTLRLAGIGVIENQYLMPLNQTRKAVAQSQELLKAGKYYEANLVLKGAEEGIVVDSEMLVAGN | soluble |
| MSAIKEVKSELRQFMKTLLGKISKEETQRQTEAVFEKIIESKWFQESKRLSVYVSTSGEIQTDSIIQKALEMGKEVFIPQFTKGSTAMDMVRVPDQTAFDNLPSTLWGIRQPEPKWKWQSYHETGPLDLILAPGVAFSPYGLRCGHGKGYYDRFFSTHHKHFPENSPKKIGLALREQIIGTIPISETDVELDEVIYEGETIIFDTI | soluble |
| PALVLEGDMTAPTLVIGWGSTFGSLKSAVQQCLEQGLPVAYLHLRHLNPLPDDLGSLLKKYDKVLVAELNSGQLCQLIRAVYLVDAQSISQCNGQPFSVNPLVSAIKAEANYEQQL | not soluble |
| MPLGLLWLGLALLGALHAQAQDSTSDLIPAPPLSKVPLQQNFQDNQFQGKWYVVGLAGNAILREDKDPQKMYATIYELKEDKSYNVTSVLFRKKKCDYAIATFVPGSQPGEFTLGNIKSYPGLTSYLVRVVSTNYNQHAMVFFKKVSQNREYFKITLYGRTKELTSELKENFIRFSKSLGLPENHIVFPVPIDQCIDG | soluble |
| MQPAVYILASQRNGTLYIGVTSDLVQRIYQHREHLIEGFTSRYNVTMLVWYELHPTMESAITREKQLKKWNRAWKLQLIEENNVSWQDLWFDII | not soluble |
| MGSDKIHHHHHHMTLSKERKLHIPFERDGDLMDIGSYPHWLQDVVGTVRAARDRVRFHEVFSLMRDGRLAPRQLAAFFVNGWPVVEQFPKYMSMNLLKANGTNSSGEEKARRYLIRNIRVELNHVEHWVNWAEASGVPRRQLTDGDSPPAALALSHWCWKSSSADTLAASIAATNYAIEGVTGEWSADLCRSDVYEMGFPEAVRGRAMRWLRLHSSYDDKHPWEALDIVATILGQSPSTEQVRDVAAGIERSFRYFEMSLSCCLDA | not soluble |
| TTTLAFRFQGGIIVAVDSRATAGNWVASQTVKRVIEINPFLLGTMAGGAADCQFWETWLGSQCRLHELREKERISVAAASKILSNLVYQYKGAGLSMGTMICGYTRKEGPTIYYVDSDGTRLKGDIFCVGSGQTFAYGVLDSNYKWDLSVEDALYLGKRSILAAAHRDAYSGGSVNLYHVTEDGWIYHGNHDVGELFWKVKEEEGSFNNVIG | soluble |
| MEFMRVLLIAGGVSPEHEVSLLSAEGVLRHIPFPTDLAVIAQDGRWLLGEKALTALEAKAAPEGEHPFPPPLSWERYDVVFPLLHGRFGEDGTVQGFLELLGKPYVGAGVAASALCMDKDLSKRVLAQAGVPVVPWVAVRKGEPPVVPFDPPFFVKPANTGSSVGISRVERFQDLEAALALAFRYDEKAVVEKALSPVRELEVGVLGNVFGEASPVGEVRYEAPFYDYETKYTPGRAELLIPAPLDPGTQETVQELALKAYKVLGVRGMARVDFFLAEGELYLNELNTIPGFTPTSMYPRLFEAGGVAYPELLRRLVELALT | soluble |
| MPVDRILEAELAVEQKSDQGVEGPGGTGGSGSSPNDPVTNICQAADKQLFTLVEWAKRIPHFSSLPLDDQVILLRAGWNELLIASFSHRSIDVRDGILLATGLHVHRNSAHSAGVGAIFDRVLTELVSKMRDMRMDKTELGCLRAIILFNPDAKGLSNPSEVEVLREKVYASLETYCKQKYPEQQGRFAKLLLRLPALRSIGLKCLEHLFFFKLIGDTPIDTFL | soluble |
| MSLSLRLPLAGGGLETFKLSAPRDFPARASGPMNRIAFSAAHVVADPLAASDPWLEAAIDWDHTIAYRQRLWDLGLGVAEAMDTAQRGMGLDWPTSLDLIRRSVEAAKAHGPEALVFSGAGTDHLAPEAARSLDDVIRAYEEQVAAVEKVGGRIILMASRALARIGTSAADYETVYGRILSQVREPVIIHWLGDMFDPALAGYWGTRDLDAAMDTAVAIINAHAAKVDGVKISLLDKDKEIAMRRRLDPAVRMYTGDDFNYAELVAGDAQGYSHALLGIFDAIAPAASAALTALAAGDEAGFHDILAPTVPLSRHIFRAPTRFYKTGVVFMAYLNGHQDHFTMVGGQESARSTLHLAELFRLADRAGLLTDPDLAVQRMRAVLAVRGVEAEGHHHHHH | soluble |
